For this assay, the target named is T1, CRF1R receptor (anti-target) (UniProt P34998 24-415, limits assumed).
T1 sequence (looked up): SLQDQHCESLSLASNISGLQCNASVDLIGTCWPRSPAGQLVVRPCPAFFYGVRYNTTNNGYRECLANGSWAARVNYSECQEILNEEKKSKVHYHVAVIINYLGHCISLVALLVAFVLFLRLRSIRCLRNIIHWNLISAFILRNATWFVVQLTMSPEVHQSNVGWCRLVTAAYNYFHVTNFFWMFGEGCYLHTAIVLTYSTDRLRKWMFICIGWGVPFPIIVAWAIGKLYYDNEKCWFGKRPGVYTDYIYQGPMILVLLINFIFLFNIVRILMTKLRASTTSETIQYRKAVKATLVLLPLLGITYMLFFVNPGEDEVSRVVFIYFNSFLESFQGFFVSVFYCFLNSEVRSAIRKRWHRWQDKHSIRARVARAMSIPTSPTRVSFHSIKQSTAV
The experiment in a line: cell-based or functional assay.

Starred links: 1 amine or outer side, 2 acyl side, 3 side chain; linkers in the order of their positions; H or OH if unused. Non-standard residues stand in square brackets, D forms with d. Groups on a side chain read outwards from the residue. No end group written: not given here. *: point of attachment. C18 diacid = O=C(O)CCCCCCCCCCCCCCCCC(=O)*; γGlu = O=C(O)[C@H](CCC(=O)[*:2])N[*:1]; AEEA = NCCOCCOCC(=O)O; Aib = CC(C)(N)C(=O)O

B1: peptide of SEQ ID NO: 117 (peptide)
peptide: IVLSLDVPIKLK([AEEA-AEEA-γGlu-C18 diacid])QILLKQERQK[Aib]QRQQAEKNKQILAQV-NH2
modifications: N-terminus assumed
SMILES: CC[C@H](C)[C@H](N)C(=O)N[C@H](C(=O)N[C@@H](CC(C)C)C(=O)N[C@@H](CO)C(=O)N[C@@H](CC(C)C)C(=O)N[C@@H](CC(=O)O)C(=O)N[C@H](C(=O)N1CCC[C@H]1C(=O)N[C@H](C(=O)N[C@@H](CCCCN)C(=O)N[C@@H](CC(C)C)C(=O)N[C@@H](CCCCNC(=O)COCCOCCNC(=O)COCCOCCNC(=O)CC[C@H](NC(=O)CCCCCCCCCCCCCCCCC(=O)O)C(=O)O)C(=O)N[C@@H](CCC(N)=O)C(=O)N[C@H](C(=O)N[C@@H](CC(C)C)C(=O)N[C@@H](CC(C)C)C(=O)N[C@@H](CCCCN)C(=O)N[C@@H](CCC(N)=O)C(=O)N[C@@H](CCC(=O)O)C(=O)N[C@@H](CCCNC(=N)N)C(=O)N[C@@H](CCC(N)=O)C(=O)N[C@@H](CCCCN)C(=O)NC(C)(C)C(=O)N[C@@H](CCC(N)=O)C(=O)N[C@@H](CCCNC(=N)N)C(=O)N[C@@H](CCC(N)=O)C(=O)N[C@@H](CCC(N)=O)C(=O)N[C@@H](C)C(=O)N[C@@H](CCC(=O)O)C(=O)N[C@@H](CCCCN)C(=O)N[C@@H](CC(N)=O)C(=O)N[C@@H](CCCCN)C(=O)N[C@@H](CCC(N)=O)C(=O)N[C@H](C(=O)N[C@@H](CC(C)C)C(=O)N[C@@H](C)C(=O)N[C@@H](CCC(N)=O)C(=O)N[C@H](C(N)=O)C(C)C)[C@@H](C)CC)[C@@H](C)CC)[C@@H](C)CC)C(C)C)C(C)C
As to B1, the “EC50 [nM] 0% HSA (cAMP, HTRF)” value is above 100 nM and the “Emax (%) (100% = Sauvagine at 100 nM)” value was -6%.

B2: peptide of SEQ ID NO: 110 (peptide)
peptide: IVLSLDVPIKLK([AEEA-AEEA-γGlu-C18 diacid])QILLKQERQK[Aib]QRQQAETNKQILAQV-NH2
modifications: N-terminus assumed
SMILES: CC[C@H](C)[C@H](N)C(=O)N[C@H](C(=O)N[C@@H](CC(C)C)C(=O)N[C@@H](CO)C(=O)N[C@@H](CC(C)C)C(=O)N[C@@H](CC(=O)O)C(=O)N[C@H](C(=O)N1CCC[C@H]1C(=O)N[C@H](C(=O)N[C@@H](CCCCN)C(=O)N[C@@H](CC(C)C)C(=O)N[C@@H](CCCCNC(=O)COCCOCCNC(=O)COCCOCCNC(=O)CC[C@H](NC(=O)CCCCCCCCCCCCCCCCC(=O)O)C(=O)O)C(=O)N[C@@H](CCC(N)=O)C(=O)N[C@H](C(=O)N[C@@H](CC(C)C)C(=O)N[C@@H](CC(C)C)C(=O)N[C@@H](CCCCN)C(=O)N[C@@H](CCC(N)=O)C(=O)N[C@@H](CCC(=O)O)C(=O)N[C@@H](CCCNC(=N)N)C(=O)N[C@@H](CCC(N)=O)C(=O)N[C@@H](CCCCN)C(=O)NC(C)(C)C(=O)N[C@@H](CCC(N)=O)C(=O)N[C@@H](CCCNC(=N)N)C(=O)N[C@@H](CCC(N)=O)C(=O)N[C@@H](CCC(N)=O)C(=O)N[C@@H](C)C(=O)N[C@@H](CCC(=O)O)C(=O)N[C@H](C(=O)N[C@@H](CC(N)=O)C(=O)N[C@@H](CCCCN)C(=O)N[C@@H](CCC(N)=O)C(=O)N[C@H](C(=O)N[C@@H](CC(C)C)C(=O)N[C@@H](C)C(=O)N[C@@H](CCC(N)=O)C(=O)N[C@H](C(N)=O)C(C)C)[C@@H](C)CC)[C@@H](C)O)[C@@H](C)CC)[C@@H](C)CC)C(C)C)C(C)C
On to B2, for which the “EC50 [nM] 0% HSA (cAMP, HTRF)” value is above 100 nM and the “Emax (%) (100% = Sauvagine at 100 nM)” value was determined as 5.4%.

B3: peptide of SEQ ID NO: 116 (peptide)
peptide: IVLSLDVPIKLK([AEEA-AEEA-γGlu-C18 diacid])QILLKQERQK[Aib]QREKAEKNKQILAQV-NH2
modifications: N-terminus assumed
SMILES: CC[C@H](C)[C@H](N)C(=O)N[C@H](C(=O)N[C@@H](CC(C)C)C(=O)N[C@@H](CO)C(=O)N[C@@H](CC(C)C)C(=O)N[C@@H](CC(=O)O)C(=O)N[C@H](C(=O)N1CCC[C@H]1C(=O)N[C@H](C(=O)N[C@@H](CCCCN)C(=O)N[C@@H](CC(C)C)C(=O)N[C@@H](CCCCNC(=O)COCCOCCNC(=O)COCCOCCNC(=O)CC[C@H](NC(=O)CCCCCCCCCCCCCCCCC(=O)O)C(=O)O)C(=O)N[C@@H](CCC(N)=O)C(=O)N[C@H](C(=O)N[C@@H](CC(C)C)C(=O)N[C@@H](CC(C)C)C(=O)N[C@@H](CCCCN)C(=O)N[C@@H](CCC(N)=O)C(=O)N[C@@H](CCC(=O)O)C(=O)N[C@@H](CCCNC(=N)N)C(=O)N[C@@H](CCC(N)=O)C(=O)N[C@@H](CCCCN)C(=O)NC(C)(C)C(=O)N[C@@H](CCC(N)=O)C(=O)N[C@@H](CCCNC(=N)N)C(=O)N[C@@H](CCC(=O)O)C(=O)N[C@@H](CCCCN)C(=O)N[C@@H](C)C(=O)N[C@@H](CCC(=O)O)C(=O)N[C@@H](CCCCN)C(=O)N[C@@H](CC(N)=O)C(=O)N[C@@H](CCCCN)C(=O)N[C@@H](CCC(N)=O)C(=O)N[C@H](C(=O)N[C@@H](CC(C)C)C(=O)N[C@@H](C)C(=O)N[C@@H](CCC(N)=O)C(=O)N[C@H](C(N)=O)C(C)C)[C@@H](C)CC)[C@@H](C)CC)[C@@H](C)CC)C(C)C)C(C)C
In the case of B3, the “EC50 [nM] 0% HSA (cAMP, HTRF)” value is above 100 nM and the “Emax (%) (100% = Sauvagine at 100 nM)” value turned out to be 0.8%.

B4: peptide of SEQ ID NO: 109 (peptide)
peptide: IVLSLDVPIKLK([AEEA-AEEA-γGlu-C18 diacid])QILLKQERQK[Aib]QREKAETNKQILAQV-NH2
modifications: N-terminus assumed
SMILES: CC[C@H](C)[C@H](N)C(=O)N[C@H](C(=O)N[C@@H](CC(C)C)C(=O)N[C@@H](CO)C(=O)N[C@@H](CC(C)C)C(=O)N[C@@H](CC(=O)O)C(=O)N[C@H](C(=O)N1CCC[C@H]1C(=O)N[C@H](C(=O)N[C@@H](CCCCN)C(=O)N[C@@H](CC(C)C)C(=O)N[C@@H](CCCCNC(=O)COCCOCCNC(=O)COCCOCCNC(=O)CC[C@H](NC(=O)CCCCCCCCCCCCCCCCC(=O)O)C(=O)O)C(=O)N[C@@H](CCC(N)=O)C(=O)N[C@H](C(=O)N[C@@H](CC(C)C)C(=O)N[C@@H](CC(C)C)C(=O)N[C@@H](CCCCN)C(=O)N[C@@H](CCC(N)=O)C(=O)N[C@@H](CCC(=O)O)C(=O)N[C@@H](CCCNC(=N)N)C(=O)N[C@@H](CCC(N)=O)C(=O)N[C@@H](CCCCN)C(=O)NC(C)(C)C(=O)N[C@@H](CCC(N)=O)C(=O)N[C@@H](CCCNC(=N)N)C(=O)N[C@@H](CCC(=O)O)C(=O)N[C@@H](CCCCN)C(=O)N[C@@H](C)C(=O)N[C@@H](CCC(=O)O)C(=O)N[C@H](C(=O)N[C@@H](CC(N)=O)C(=O)N[C@@H](CCCCN)C(=O)N[C@@H](CCC(N)=O)C(=O)N[C@H](C(=O)N[C@@H](CC(C)C)C(=O)N[C@@H](C)C(=O)N[C@@H](CCC(N)=O)C(=O)N[C@H](C(N)=O)C(C)C)[C@@H](C)CC)[C@@H](C)O)[C@@H](C)CC)[C@@H](C)CC)C(C)C)C(C)C
As to B4, the “EC50 [nM] 0% HSA (cAMP, HTRF)” value was above 100 nM and the “Emax (%) (100% = Sauvagine at 100 nM)” value turned out to be 1.1%.

B5: peptide of SEQ ID NO: 108 (peptide)
peptide: IVLSLDVPIKLK([AEEA-AEEA-γGlu-C18 diacid])QILLKQERQK[Aib]QRQKAETNKQILAQV-NH2
modifications: N-terminus assumed
SMILES: CC[C@H](C)[C@H](N)C(=O)N[C@H](C(=O)N[C@@H](CC(C)C)C(=O)N[C@@H](CO)C(=O)N[C@@H](CC(C)C)C(=O)N[C@@H](CC(=O)O)C(=O)N[C@H](C(=O)N1CCC[C@H]1C(=O)N[C@H](C(=O)N[C@@H](CCCCN)C(=O)N[C@@H](CC(C)C)C(=O)N[C@@H](CCCCNC(=O)COCCOCCNC(=O)COCCOCCNC(=O)CC[C@H](NC(=O)CCCCCCCCCCCCCCCCC(=O)O)C(=O)O)C(=O)N[C@@H](CCC(N)=O)C(=O)N[C@H](C(=O)N[C@@H](CC(C)C)C(=O)N[C@@H](CC(C)C)C(=O)N[C@@H](CCCCN)C(=O)N[C@@H](CCC(N)=O)C(=O)N[C@@H](CCC(=O)O)C(=O)N[C@@H](CCCNC(=N)N)C(=O)N[C@@H](CCC(N)=O)C(=O)N[C@@H](CCCCN)C(=O)NC(C)(C)C(=O)N[C@@H](CCC(N)=O)C(=O)N[C@@H](CCCNC(=N)N)C(=O)N[C@@H](CCC(N)=O)C(=O)N[C@@H](CCCCN)C(=O)N[C@@H](C)C(=O)N[C@@H](CCC(=O)O)C(=O)N[C@H](C(=O)N[C@@H](CC(N)=O)C(=O)N[C@@H](CCCCN)C(=O)N[C@@H](CCC(N)=O)C(=O)N[C@H](C(=O)N[C@@H](CC(C)C)C(=O)N[C@@H](C)C(=O)N[C@@H](CCC(N)=O)C(=O)N[C@H](C(N)=O)C(C)C)[C@@H](C)CC)[C@@H](C)O)[C@@H](C)CC)[C@@H](C)CC)C(C)C)C(C)C
As to B5, the “EC50 [nM] 0% HSA (cAMP, HTRF)” value is above 100 nM and the “Emax (%) (100% = Sauvagine at 100 nM)” value was -2%.

B6: peptide of SEQ ID NO: 106 (peptide)
peptide: IVLSLDVPIKLK([AEEA-AEEA-γGlu-C18 diacid])QILLEQERQK[Aib]QREQAETNKQILERV-NH2
modifications: N-terminus assumed
SMILES: CC[C@H](C)[C@H](N)C(=O)N[C@H](C(=O)N[C@@H](CC(C)C)C(=O)N[C@@H](CO)C(=O)N[C@@H](CC(C)C)C(=O)N[C@@H](CC(=O)O)C(=O)N[C@H](C(=O)N1CCC[C@H]1C(=O)N[C@H](C(=O)N[C@@H](CCCCN)C(=O)N[C@@H](CC(C)C)C(=O)N[C@@H](CCCCNC(=O)COCCOCCNC(=O)COCCOCCNC(=O)CC[C@H](NC(=O)CCCCCCCCCCCCCCCCC(=O)O)C(=O)O)C(=O)N[C@@H](CCC(N)=O)C(=O)N[C@H](C(=O)N[C@@H](CC(C)C)C(=O)N[C@@H](CC(C)C)C(=O)N[C@@H](CCC(=O)O)C(=O)N[C@@H](CCC(N)=O)C(=O)N[C@@H](CCC(=O)O)C(=O)N[C@@H](CCCNC(=N)N)C(=O)N[C@@H](CCC(N)=O)C(=O)N[C@@H](CCCCN)C(=O)NC(C)(C)C(=O)N[C@@H](CCC(N)=O)C(=O)N[C@@H](CCCNC(=N)N)C(=O)N[C@@H](CCC(=O)O)C(=O)N[C@@H](CCC(N)=O)C(=O)N[C@@H](C)C(=O)N[C@@H](CCC(=O)O)C(=O)N[C@H](C(=O)N[C@@H](CC(N)=O)C(=O)N[C@@H](CCCCN)C(=O)N[C@@H](CCC(N)=O)C(=O)N[C@H](C(=O)N[C@@H](CC(C)C)C(=O)N[C@@H](CCC(=O)O)C(=O)N[C@@H](CCCNC(=N)N)C(=O)N[C@H](C(N)=O)C(C)C)[C@@H](C)CC)[C@@H](C)O)[C@@H](C)CC)[C@@H](C)CC)C(C)C)C(C)C
For B6, the “EC50 [nM] 0% HSA (cAMP, HTRF)” value is above 100 nM and the “Emax (%) (100% = Sauvagine at 100 nM)” value was determined as 5.1%.

These data come from patent US12679878B2, “CRF2 receptor agonists and their use in therapy” (SANOFI, priority 2020, dated 2026).
